In the supplement of paper PMC7877785:
± gives the uncertainty stated by the source.

Assay: self-splicing fitness, log relative to wild type (ln ratio); higher = more splicing; Tetrahymena group I intron in knt gene, E. coli kanamycin selection, DiMSum; sequences stand for … in CUCUCU…GGAGGGAAAAGUUAUCAGGCAUGCACCUGGUAGCUAGUCUUUAAACCAAUAGAUUGCAUCGGUUUAAAAGGCAAGACCGUCAAAUUGCGGGAAAGGGGUCAACAGCCGUUCAGUACCAAGUCUCAGGGGAAACUUUGAGAUGGCCUUGCAAAGGGUAUGGUAAUAAGCUGACGGACAUGGUCCUAACCACGCAGCCAAGUCCUAAGUCAACAGAUCUUCUGUUGAUAUGGAUGCAGUUCACAGACUAAAUGUCGGUCGGGGAAGAUGUAUUCUUCUCAUAAGAUAUAGUCGGACCUCUCCUUAAUGGGAGCUAGCGGAUGAAGUGAUGCAACACUGGAGCCGCUGGGAACUAAUUUGUAUGCGAAAGUAUAUUGAUUAGUUUUGGAGUACUCGUGGUCG
Procedure, shortened: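 Pooled colonies went to amplicon sequencing on an Illumina HiSeq 2500 after six replicate transformations. The plates were LB agar with 100 μg/mL carbenicillin, 50 μM IPTG and 0.2% rhamnose, with or without 25 μg/mL kanamycin, incubated overnight at 37°C or 30°C. The E. coli BL21(DE3) library had all eight P1ex-region intron nucleotides randomised, the intron placed in the knt kanamycin-resistance gene on pET-22b(+). DiMSum fitness is the error-weighted combination of replicate fold changes, kanamycin against none, normalised to wild type.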

Question: For UCUUAGCAAUAUUACGAUUC, which “self-splicing fitness (ln)” value (30 °C) is on record?
Answer: -2.05 ± 0.44

Question: What does the source list for CCGAAGCAAUAUUACGAAUG?
Answer: self-splicing fitness (ln) (30 °C): -0.621 ± 0.059; self-splicing fitness (ln) (37 °C): -0.208 ± 0.076

Question: For CGGAAGCAAUAUUACGAGUA, which “self-splicing fitness (ln)” value (37 °C) is on record?
Answer: -2.86 ± 0.29

Question: For UGGUAGCAAUAUUACGGCUA, which “self-splicing fitness (ln)” value (30 °C) is on record?
Answer: -1.37 ± 0.2

Question: What about the “self-splicing fitness (ln)” value (37 °C) of the same sequence?
Answer: -0.75 ± 0.19

Question: For UUCCAGCAAUAUUACGCUUC, which “self-splicing fitness (ln)” value (30 °C) is on record?
Answer: -4.08 ± 0.24

Question: What about the “self-splicing fitness (ln)” value (37 °C) of the same sequence?
Answer: -2.58 ± 0.18

Question: Which results are given for GAUCAGCAAUAUUACGAGUU?
Answer: self-splicing fitness (ln) (30 °C): -1.26 ± 0.094; self-splicing fitness (ln) (37 °C): -0.882 ± 0.12

Question: Which “self-splicing fitness (ln)” value (30 °C) does the source give for CCUUAGCAAUAUUACGUUUA here?
Answer: -3.23 ± 0.26

Question: And the “self-splicing fitness (ln)” value (37 °C)?
Answer: -2.21 ± 0.2

Question: Which “self-splicing fitness (ln)” value (30 °C) does the source give for ACCGAGCAAUAUUACGGCCA here?
Answer: -0.778 ± 0.13

Question: What about the “self-splicing fitness (ln)” value (37 °C) of the same sequence?
Answer: -0.469 ± 0.14

Question: For CAAGAGCAAUAUUACGGCCG, which “self-splicing fitness (ln)” value (30 °C) is on record?
Answer: -0.899 ± 0.13

Question: What about the “self-splicing fitness (ln)” value (37 °C) of the same sequence?
Answer: -0.536 ± 0.17

Question: For UAGCAGCAAUAUUACGAGGC, which “self-splicing fitness (ln)” value (37 °C) is on record?
Answer: -3.43 ± 0.31

Question: Which results are given for AGACAGCAAUAUUACGGGAC?
Answer: self-splicing fitness (ln) (30 °C): -2.87 ± 0.18; self-splicing fitness (ln) (37 °C): -2.54 ± 0.23

Question: What does the source list for CUAAAGCAAUAUUACGCGAC?
Answer: self-splicing fitness (ln) (30 °C): -0.482 ± 0.14; self-splicing fitness (ln) (37 °C): -0.124 ± 0.17

Question: Which “self-splicing fitness (ln)” value (30 °C) does the source give for CGACAGCAAUAUUACGAUCG here?
Answer: -3.43 ± 0.2

Question: What about the “self-splicing fitness (ln)” value (37 °C) of the same sequence?
Answer: -2.11 ± 0.2

Question: For GCCAAGCAAUAUUACGGGCG, which “self-splicing fitness (ln)” value (30 °C) is on record?
Answer: -1.36 ± 0.09

Question: And the “self-splicing fitness (ln)” value (37 °C)?
Answer: -0.322 ± 0.11

Question: Which “self-splicing fitness (ln)” value (30 °C) does the source give for ACUUAGCAAUAUUACGUAUU here?
Answer: -2.02 ± 0.12

Question: What about the “self-splicing fitness (ln)” value (37 °C) of the same sequence?
Answer: -2.26 ± 0.17

Question: Which “self-splicing fitness (ln)” value (30 °C) does the source give for AGCAAGCAAUAUUACGCCGU here?
Answer: -1.05 ± 0.11

Question: What about the “self-splicing fitness (ln)” value (37 °C) of the same sequence?
Answer: -0.892 ± 0.11

Question: For CCUCAGCAAUAUUACGUACG, which “self-splicing fitness (ln)” value (30 °C) is on record?
Answer: -1.32 ± 0.069

Question: What about the “self-splicing fitness (ln)” value (37 °C) of the same sequence?
Answer: -0.131 ± 0.084

Question: For CCGGAGCAAUAUUACGCAGU, which “self-splicing fitness (ln)” value (30 °C) is on record?
Answer: -3.74 ± 0.28

Question: And the “self-splicing fitness (ln)” value (37 °C)?
Answer: -2.13 ± 0.25

Question: For AGUCAGCAAUAUUACGAAAG, which “self-splicing fitness (ln)” value (30 °C) is on record?
Answer: -3.43 ± 0.23

Question: And the “self-splicing fitness (ln)” value (37 °C)?
Answer: -1.45 ± 0.2

Question: Which “self-splicing fitness (ln)” value (30 °C) does the source give for AAGCAGCAAUAUUACGUUUG here?
Answer: -3.04 ± 0.13

Question: What about the “self-splicing fitness (ln)” value (37 °C) of the same sequence?
Answer: -1.73 ± 0.14

Question: For ACUCAGCAAUAUUACGAGCA, which “self-splicing fitness (ln)” value (30 °C) is on record?
Answer: -0.632 ± 0.068

Question: And the “self-splicing fitness (ln)” value (37 °C)?
Answer: 0.302 ± 0.092

Question: Which results are given for UAGGAGCAAUAUUACGCAUA?
Answer: self-splicing fitness (ln) (30 °C): -2.01 ± 0.19; self-splicing fitness (ln) (37 °C): -1.78 ± 0.17

Question: For UGUGAGCAAUAUUACGACGA, which “self-splicing fitness (ln)” value (30 °C) is on record?
Answer: -0.898 ± 0.14

Question: What about the “self-splicing fitness (ln)” value (37 °C) of the same sequence?
Answer: 0.278 ± 0.14

Question: For CCAUAGCAAUAUUACGGAAU, which “self-splicing fitness (ln)” value (30 °C) is on record?
Answer: -1.22 ± 0.15

Question: And the “self-splicing fitness (ln)” value (37 °C)?
Answer: -2.38 ± 0.2

Question: What does the source list for AACCAGCAAUAUUACGGUCA?
Answer: self-splicing fitness (ln) (30 °C): -0.301 ± 0.045; self-splicing fitness (ln) (37 °C): 0.0924 ± 0.062

Question: What does the source list for UGGGAGCAAUAUUACGCUUG?
Answer: self-splicing fitness (ln) (30 °C): -1.62 ± 0.23; self-splicing fitness (ln) (37 °C): 0.249 ± 0.23

Question: For AGGUAGCAAUAUUACGGGUC, which “self-splicing fitness (ln)” value (30 °C) is on record?
Answer: -3.64 ± 0.03

Question: And the “self-splicing fitness (ln)” value (37 °C)?
Answer: -2.96 ± 0.046

Question: Which “self-splicing fitness (ln)” value (30 °C) does the source give for GGUCAGCAAUAUUACGUUCA here?
Answer: -0.169 ± 0.13

Question: What about the “self-splicing fitness (ln)” value (37 °C) of the same sequence?
Answer: -0.487 ± 0.13

Question: For UCAUAGCAAUAUUACGUCAA, which “self-splicing fitness (ln)” value (30 °C) is on record?
Answer: -2.44 ± 0.32

Question: Which “self-splicing fitness (ln)” value (30 °C) does the source give for UUCUAGCAAUAUUACGCCUG here?
Answer: -1.79 ± 0.4

Question: And the “self-splicing fitness (ln)” value (37 °C)?
Answer: -1.6 ± 0.49

Question: With AUCGAGCAAUAUUACGCAAA as the sequence, how does the “self-splicing fitness (ln)” value (30 °C) read?
Answer: -2.86 ± 0.16

Question: What about the “self-splicing fitness (ln)” value (37 °C) of the same sequence?
Answer: -2.38 ± 0.26

Question: What does the source list for UGGAAGCAAUAUUACGACGG?
Answer: self-splicing fitness (ln) (30 °C): -0.691 ± 0.065; self-splicing fitness (ln) (37 °C): -0.14 ± 0.084

Question: For UCGAAGCAAUAUUACGGGAG, which “self-splicing fitness (ln)” value (30 °C) is on record?
Answer: -3.68 ± 0.33

Question: And the “self-splicing fitness (ln)” value (37 °C)?
Answer: -2.91 ± 0.31

Question: What does the source list for ACUGAGCAAUAUUACGGCAA?
Answer: self-splicing fitness (ln) (30 °C): -2.13 ± 0.14; self-splicing fitness (ln) (37 °C): -2.33 ± 0.21

Question: With CGCCAGCAAUAUUACGGAAU as the sequence, how does the “self-splicing fitness (ln)” value (30 °C) read?
Answer: -2.95 ± 0.2

Question: What about the “self-splicing fitness (ln)” value (37 °C) of the same sequence?
Answer: -2.05 ± 0.21

Question: What does the source list for GAUCAGCAAUAUUACGCAAA?
Answer: self-splicing fitness (ln) (30 °C): -0.978 ± 0.17; self-splicing fitness (ln) (37 °C): -0.367 ± 0.16

Question: With ACUAAGCAAUAUUACGCGCA as the sequence, how does the “self-splicing fitness (ln)” value (30 °C) read?
Answer: -0.252 ± 0.067

Question: And the “self-splicing fitness (ln)” value (37 °C)?
Answer: -0.518 ± 0.085

Question: With AGCUAGCAAUAUUACGGAUU as the sequence, how does the “self-splicing fitness (ln)” value (30 °C) read?
Answer: -1.3 ± 0.097

Question: And the “self-splicing fitness (ln)” value (37 °C)?
Answer: -1 ± 0.13
